Reference: the DeepSol protein solubility set

Assay: soluble on expression in E. coli; label from the status in PepcDB or PDB records

Sequence | soluble on expression in E. coli
AIAVLLRHPVLGTEQLPDSWPSHWNTAIVGIPGYSRQRSDLSVVKDVSSPCLPLVAMPSCDDGLASLWNDVSRAV | soluble
MGASRMTEIIDISLDITEDTVVMPENPEFDKERLASIGKEGYELYKICMSNHIGTHIDAPAHFVSEGALINQLDLDTLMGKALVVEIKDEHKISVDELKRVNLKDNIRLLFKTRNSELIAENKLTKDFVYIEEQAAGHLVKNGVKLIGLDYFTIDRIEDQDKPAHKEFAGNGVVVIEGVNLLNVEPGEYELVALPIKINADGAPARVILRRLEHHHHHH | soluble
MQCNDVQATEPDIKVSLTRVGVTNLKKLVKLKRKNKRDIVLLPTFEVFVDLPSSQKGIHMSRSPEVIEEVVENILLEKEIYGVEDLSVEIVMKLFEKHEYATRAEVMLYSDYMMEEKSPVTKKDSQEIGKIIARAYGVKDSNGKIDVKKMVGAEVVGITACPCAQNMLKENAVVSLTEKGFSSEDIEKILDSVTIATHNQRGIGTVMIEVPNGYTVGISKIIKIIKDSMSGEVYELLKRSDEAFVVEAAHKNPKFVEDCAREMIKRVVDVFDYLPEDTQVLVRQVNKESIHRHDAFAERNSTIRELRDELKTLTN | not soluble
GTDGTKPECTLCGVKYSARLSIRDHIFSKQHISKVRETVGSQLDREKD | soluble
MKKYLILVGSPPACGKTYVSGELAKRLNNPVYLDKDTVIPLSKMVFKAANQPYNRDSDFFKEYVRDAEYIVTFDLAFESLNYNNCVIVNAPFSKEFRDKGYMNNLKNKLKKYNAELIPVWVSCDIDVCHKRMIKRNSDRDTWKLNNWDEYVKGQNYTTPDLEGLFVVDNSSNEDFEAGLKKLLEKVLLEHHHHHH | soluble
GSFIDIEFPEWFHEGLSRHQAENLLMGKDIGFFIIRASQSSPGDFSISVRHEDDVQHFKVMRDTKGNYFLWTEKFPSLNKLVDYYRTTSISKQKQVFLRD | soluble
MGSDKIHHHHHHMHDKFLNYFDETARQGSIRKAAAVLNMSSSSLNRKIISTENRLGIRLFDRHADGVTLTEAGVVVLEHCRNTLFDYQRIVNMVEDIRDMRTGHIDILTLDSIALSVLPEVLDDFQDAYPQVAYTIQTDEPHAVMQAVANGTADIGLSFSNDLHPDVRCQAEKSTPIGAIMAHDHPLAERDLIEVGDLAPYQLIRSYDSQTHRSFVNEAVSSLGVQLSTQMVTNSLPLAKTMILNGRGVGIYSKIGFIEEIEDGRLRYVAINSPLLRELRIGVLISARTGLLPVQHLLARALSKSLRSLRLDS | not soluble
MPLTGEYEPSPSKWAADQAELMESTDGAKGTTLGGRPVVLLTTRGAKSGKIRKTPLMRVEHDGTYAIVASLGGAPKNPVWYYNVKAEPHVELRDGSATQDMVAREVTGDERATWWDRAVAAFPDYAEYQKKTDREIPVFVLEPA | not soluble
MSLCGLLGILTANGNAEAFVPALERALPCMRHRGPDDAGTWHDADAAFGFNRLSIIDIAHSHQPLRWGPADEPDRYAMTFNGEIYNYVELRKELSDLGYAFNTSGDGEPIVVGFHHWGESVVEHLRGMFGIAIWDTKEKSLFLARDQFGIKPLFYATTEHGTVFSSEKKTILEMAEEMNLDLGLDKRTIEHYVDLQYVPEPDTLHAQISRLESGCTATVRPGGKLEQKRYFKPQFPVQKVVKGKEQDLFDRIAQVLEDSVEKHMRADVTVGSFLSGGIDSTAIAALAKRHNPDLLTFTTGFEREGYSEVDVAAESAAAIGAEHIVKIVSPEEYANAIPKIMWYLDDPVADPSLVPLYFVAAEARKHVKVVLSGEGADELFGGYTIYKEPLSLAPFEKIPSPLRKGLGKLSKVLPDGMKGKSLLERGSMTMEERYYGNARSFNFEQMQRVIPWAKREWDHREVTAPIYAQSRNFDPVARMQHLDLFTWMRGDILVKADKINMANSLELRVPFLDKEVFKVAETIPYDLKIANGTTKYALRRALEQIVPPHVLHRKKLGFPVPMRHWLAGDELFGWAQDTIKESGTEDIFNKQAVLDMLNEHRDGVSDHSRRLWTVLSFMVWHGIFVENRIDPQIEDRSYPVEEGHHHHHH | soluble
NGQIMYRIVTVQDSTERLESQSALRESEERFRSVVESAPDAIFIQTGGRFAYLNHSAIALFGASKAEEILGRRVADQIHPDYRDLVAERIRLLNERQ | not soluble
